We go through 11 molecules from patent publication US20230192789A1, “STRUCTURALLY-STABILIZED AND HDMX-SELECTIVE P53 PEPTIDES AND USES THEREOF” (Dana-Farber Cancer Institute, Inc., priority 2020, published 2023).

“Also recorded” adds a separate entry of the source. Bridges are numbered along the chain shown (N, C = ends). [ ]: non-standard residue; d: D form. The star is where a group is joined. Biotin = O=C1N[C@H]2[C@H](CS[C@H]2CCCCC(=O)*)N1; R8 = C=CCCCCCC[C@@](C)(N)C(=O)O; S5 = C=CCCC[C@](C)(N)C(=O)O

Assay [1] deals with T1, recombinant HDM2 (amino acids 17-125 of SEQ ID NO:103) (Homo sapiens, UniProt Q00987).
T1 construct: hexahistidine (N); thrombin cleavage site (N); made in house; host or cells: BL21(DE3) E. coli
In words: Competitive streptavidin pull-down of biotinylated peptides with 1:1 recombinant HDM2/HDMX mixture, HDM2 western. The format is binding. The following applies: biotinylated stapled peptide, 1:1 mixture of recombinant HDM2 and HDMX. How it is done: For these studies, biotinylated peptides were incubated with a 1:1 mixture of recombinant HDM2 (amino acids 17-125 of SEQ ID NO: 103) and HDMX (amino acids 1-490 of SEQ ID NO: 104), followed by streptavidin pull-down and HDM2 and HDMX Western analyses. […] .

For assay [2], the target named is T2, recombinant HDMX (amino acids 1-490 of SEQ ID NO:104) (Homo sapiens, UniProt O15151).
T2 construct: thioredoxin (N, cleaved yes); S tag (N, cleaved yes); hexahistidine (N, cleaved yes); made in house; host or cells: E. coli (inferred: pET32-LIC vector, handled as described for HDM2 in BL21(DE3))
T2 sequence (O15151 1-490): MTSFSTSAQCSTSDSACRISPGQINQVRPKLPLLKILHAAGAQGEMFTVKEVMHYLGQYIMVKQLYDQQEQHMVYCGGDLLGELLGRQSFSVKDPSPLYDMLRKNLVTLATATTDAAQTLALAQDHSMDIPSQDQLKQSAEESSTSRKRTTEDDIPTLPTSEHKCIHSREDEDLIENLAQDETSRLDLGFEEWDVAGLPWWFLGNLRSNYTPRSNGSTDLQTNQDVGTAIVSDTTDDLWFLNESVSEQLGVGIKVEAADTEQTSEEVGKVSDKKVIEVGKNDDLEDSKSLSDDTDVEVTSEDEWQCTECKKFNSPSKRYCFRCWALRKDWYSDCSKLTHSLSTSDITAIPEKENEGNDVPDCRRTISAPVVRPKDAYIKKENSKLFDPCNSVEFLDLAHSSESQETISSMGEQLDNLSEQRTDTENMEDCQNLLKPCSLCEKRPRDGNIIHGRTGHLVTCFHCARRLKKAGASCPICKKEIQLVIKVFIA
Put plainly: Competitive streptavidin pull-down of biotinylated peptides with 1:1 recombinant HDM2/HDMX mixture, HDMX western. It is filed as binding. The following applies: biotinylated stapled peptide, 1:1 mixture of recombinant HDM2 and HDMX.

Assay [3] concerns the target T3, recombinant HDM2 (amino acids 17-125 of SEQ ID NO:103) (human, UniProt Q00987 17-125).
T3 construct: also called MDM2; not shown: thrombin cleavage site (pET28a vector)
In words: streptavidin pull-down of biotinylated peptide with recombinant HDM2 and HDMX (1:1 mixture per paragraph 301), western blot. Background: A western blot detects proteins with antibodies after separation by electrophoresis.

Take “ATSP-7041 B26A (Biotin-LTF[R8]EYWAQA[S5]SAA-NH2; staple 4-11; SMILES CC(C)C[C@H](NC(=O)CCCC[C@@H]1SC[C@@H]2NC(=O)N[C@@H]21)C(=O)N[C@H](C(=O)N[C@@H](Cc1ccccc1)C(=O)N[C@]1(C)CCCCCCC=CCCC[C@@](C)(C(=O)N[C@@H](CO)C(=O)N[C@@H](C)C(=O)N[C@@H](C)C(N)=O)NC(=O)[C@H](C)NC(=O)[C@H](CCC(N)=O)NC(=O)[C@H](C)NC(=O)[C@H](Cc2c[nH]c3ccccc23)NC(=O)[C@H](Cc2ccc(O)cc2)NC(=O)[C@H](CCC(=O)O)NC1=O)[C@@H](C)O)”: in assay [1], the HDM2 interaction result is listed as “essentially abrogate HDM2 interaction”. Further, in assay [2], the HDMX interaction result is “engage HDMX with greatest affinity” and the “HDMX versus HDM2 binding selectivity” value was “HDMX selectivity over HDM2; also recorded: most HDMX-specific”.

B1: ATSP-7041 B26K (peptide)
peptide: Biotin-LTF[R8]EYWAQK[S5]SAA-NH2
modifications: staple 4-11
SMILES: CC(C)C[C@H](NC(=O)CCCC[C@@H]1SC[C@@H]2NC(=O)N[C@@H]21)C(=O)N[C@H](C(=O)N[C@@H](Cc1ccccc1)C(=O)N[C@]1(C)CCCCCCC=CCCC[C@@](C)(C(=O)N[C@@H](CO)C(=O)N[C@@H](C)C(=O)N[C@@H](C)C(N)=O)NC(=O)[C@H](CCCCN)NC(=O)[C@H](CCC(N)=O)NC(=O)[C@H](C)NC(=O)[C@H](Cc2c[nH]c3ccccc23)NC(=O)[C@H](Cc2ccc(O)cc2)NC(=O)[C@H](CCC(=O)O)NC1=O)[C@@H](C)O
Take B1: the binding result in assay [3] is reported as “no binding”.

B2: ATSP-7041 B26P (peptide)
peptide: Biotin-LTF[R8]EYWAQP[S5]SAA-NH2
modifications: staple 4-11
SMILES: CC(C)C[C@H](NC(=O)CCCC[C@@H]1SC[C@@H]2NC(=O)N[C@@H]21)C(=O)N[C@H](C(=O)N[C@@H](Cc1ccccc1)C(=O)N[C@]1(C)CCCCCCC=CCCC[C@@](C)(C(=O)N[C@@H](CO)C(=O)N[C@@H](C)C(=O)N[C@@H](C)C(N)=O)NC(=O)[C@@H]2CCCN2C(=O)[C@H](CCC(N)=O)NC(=O)[C@H](C)NC(=O)[C@H](Cc2c[nH]c3ccccc23)NC(=O)[C@H](Cc2ccc(O)cc2)NC(=O)[C@H](CCC(=O)O)NC1=O)[C@@H](C)O
Take B2: the binding result in assay [3] is reported as “no binding”.

B3: ATSP-7041 B26V (peptide)
peptide: Biotin-LTF[R8]EYWAQV[S5]SAA-NH2
modifications: staple 4-11
SMILES: CC(C)C[C@H](NC(=O)CCCC[C@@H]1SC[C@@H]2NC(=O)N[C@@H]21)C(=O)N[C@H](C(=O)N[C@@H](Cc1ccccc1)C(=O)N[C@]1(C)CCCCCCC=CCCC[C@@](C)(C(=O)N[C@@H](CO)C(=O)N[C@@H](C)C(=O)N[C@@H](C)C(N)=O)NC(=O)[C@H](C(C)C)NC(=O)[C@H](CCC(N)=O)NC(=O)[C@H](C)NC(=O)[C@H](Cc2c[nH]c3ccccc23)NC(=O)[C@H](Cc2ccc(O)cc2)NC(=O)[C@H](CCC(=O)O)NC1=O)[C@@H](C)O
Regarding B3, the binding result in assay [3] is “no binding”.

B4: ATSP-7041 B26T (peptide)
peptide: Biotin-LTF[R8]EYWAQT[S5]SAA-NH2
modifications: staple 4-11
SMILES: CC(C)C[C@H](NC(=O)CCCC[C@@H]1SC[C@@H]2NC(=O)N[C@@H]21)C(=O)N[C@H](C(=O)N[C@@H](Cc1ccccc1)C(=O)N[C@]1(C)CCCCCCC=CCCC[C@@](C)(C(=O)N[C@@H](CO)C(=O)N[C@@H](C)C(=O)N[C@@H](C)C(N)=O)NC(=O)[C@H]([C@@H](C)O)NC(=O)[C@H](CCC(N)=O)NC(=O)[C@H](C)NC(=O)[C@H](Cc2c[nH]c3ccccc23)NC(=O)[C@H](Cc2ccc(O)cc2)NC(=O)[C@H](CCC(=O)O)NC1=O)[C@@H](C)O
Turning to B4, the binding result in assay [3] was “no binding”.

B5: ATSP-7041 B26W (peptide)
peptide: Biotin-LTF[R8]EYWAQW[S5]SAA-NH2
modifications: staple 4-11
SMILES: CC(C)C[C@H](NC(=O)CCCC[C@@H]1SC[C@@H]2NC(=O)N[C@@H]21)C(=O)N[C@H](C(=O)N[C@@H](Cc1ccccc1)C(=O)N[C@]1(C)CCCCCCC=CCCC[C@@](C)(C(=O)N[C@@H](CO)C(=O)N[C@@H](C)C(=O)N[C@@H](C)C(N)=O)NC(=O)[C@H](Cc2c[nH]c3ccccc23)NC(=O)[C@H](CCC(N)=O)NC(=O)[C@H](C)NC(=O)[C@H](Cc2c[nH]c3ccccc23)NC(=O)[C@H](Cc2ccc(O)cc2)NC(=O)[C@H](CCC(=O)O)NC1=O)[C@@H](C)O
With B5, the binding result in assay [3] is listed as “no binding”.

B6: ATSP-7041 B26Q (peptide)
peptide: Biotin-LTF[R8]EYWAQQ[S5]SAA-NH2
modifications: staple 4-11
SMILES: CC(C)C[C@H](NC(=O)CCCC[C@@H]1SC[C@@H]2NC(=O)N[C@@H]21)C(=O)N[C@H](C(=O)N[C@@H](Cc1ccccc1)C(=O)N[C@]1(C)CCCCCCC=CCCC[C@@](C)(C(=O)N[C@@H](CO)C(=O)N[C@@H](C)C(=O)N[C@@H](C)C(N)=O)NC(=O)[C@H](CCC(N)=O)NC(=O)[C@H](CCC(N)=O)NC(=O)[C@H](C)NC(=O)[C@H](Cc2c[nH]c3ccccc23)NC(=O)[C@H](Cc2ccc(O)cc2)NC(=O)[C@H](CCC(=O)O)NC1=O)[C@@H](C)O
For B6, the binding result in assay [3] is “no binding”.

B7: ATSP-7041 B26N (peptide)
peptide: Biotin-LTF[R8]EYWAQN[S5]SAA-NH2
modifications: staple 4-11
SMILES: CC(C)C[C@H](NC(=O)CCCC[C@@H]1SC[C@@H]2NC(=O)N[C@@H]21)C(=O)N[C@H](C(=O)N[C@@H](Cc1ccccc1)C(=O)N[C@]1(C)CCCCCCC=CCCC[C@@](C)(C(=O)N[C@@H](CO)C(=O)N[C@@H](C)C(=O)N[C@@H](C)C(N)=O)NC(=O)[C@H](CC(N)=O)NC(=O)[C@H](CCC(N)=O)NC(=O)[C@H](C)NC(=O)[C@H](Cc2c[nH]c3ccccc23)NC(=O)[C@H](Cc2ccc(O)cc2)NC(=O)[C@H](CCC(=O)O)NC1=O)[C@@H](C)O
Consider B7, for which the binding result in assay [3] was “no binding”.

B8: ATSP-7041 B26Y (peptide)
peptide: Biotin-LTF[R8]EYWAQY[S5]SAA-NH2
modifications: staple 4-11
SMILES: CC(C)C[C@H](NC(=O)CCCC[C@@H]1SC[C@@H]2NC(=O)N[C@@H]21)C(=O)N[C@H](C(=O)N[C@@H](Cc1ccccc1)C(=O)N[C@]1(C)CCCCCCC=CCCC[C@@](C)(C(=O)N[C@@H](CO)C(=O)N[C@@H](C)C(=O)N[C@@H](C)C(N)=O)NC(=O)[C@H](Cc2ccc(O)cc2)NC(=O)[C@H](CCC(N)=O)NC(=O)[C@H](C)NC(=O)[C@H](Cc2c[nH]c3ccccc23)NC(=O)[C@H](Cc2ccc(O)cc2)NC(=O)[C@H](CCC(=O)O)NC1=O)[C@@H](C)O
As to B8, in assay [3], the binding result is listed as “no binding”.

B9: ATSP-7041 B26R (peptide)
peptide: Biotin-LTF[R8]EYWAQR[S5]SAA-NH2
modifications: staple 4-11
SMILES: CC(C)C[C@H](NC(=O)CCCC[C@@H]1SC[C@@H]2NC(=O)N[C@@H]21)C(=O)N[C@H](C(=O)N[C@@H](Cc1ccccc1)C(=O)N[C@]1(C)CCCCCCC=CCCC[C@@](C)(C(=O)N[C@@H](CO)C(=O)N[C@@H](C)C(=O)N[C@@H](C)C(N)=O)NC(=O)[C@H](CCCNC(=N)N)NC(=O)[C@H](CCC(N)=O)NC(=O)[C@H](C)NC(=O)[C@H](Cc2c[nH]c3ccccc23)NC(=O)[C@H](Cc2ccc(O)cc2)NC(=O)[C@H](CCC(=O)O)NC1=O)[C@@H](C)O
For B9, the binding result in assay [3] is “no binding”.

B10: ATSP-7041 B26S (peptide)
peptide: Biotin-LTF[R8]EYWAQS[S5]SAA-NH2
modifications: staple 4-11
SMILES: CC(C)C[C@H](NC(=O)CCCC[C@@H]1SC[C@@H]2NC(=O)N[C@@H]21)C(=O)N[C@H](C(=O)N[C@@H](Cc1ccccc1)C(=O)N[C@]1(C)CCCCCCC=CCCC[C@@](C)(C(=O)N[C@@H](CO)C(=O)N[C@@H](C)C(=O)N[C@@H](C)C(N)=O)NC(=O)[C@H](CO)NC(=O)[C@H](CCC(N)=O)NC(=O)[C@H](C)NC(=O)[C@H](Cc2c[nH]c3ccccc23)NC(=O)[C@H](Cc2ccc(O)cc2)NC(=O)[C@H](CCC(=O)O)NC1=O)[C@@H](C)O
In the case of B10, the binding result in assay [3] is on record as “no binding”.
